Columns and labels:
[1] = Iron-binding capacity of lipocalin allergens (quenching of autofluorescence); settings: 2 μM allergen, 50UM siderophore (2,3, Dihydroxybenzoic Acid), iron III 0 to 50 μM; excitation/emission 280 and 340
Description: In this assay, 2 μM of allergen (in the example BLG) and 50UM of siderophores like 2,3, Dihydroxybenzoic Acid are incubated with increasing concentrations of iron III (Fe3+) ranging from 0 to 50 μM (x-axis in FIG. 5). Quenching of autofluorescence is measured at excitation and emission wavelengths of […] respectively in endpoint mode (y-axis in FIG. 5).

[2] = test system: CD3+ cells of PMA-activated PBMCs; assay: CD4/CD8 expression and survival of PMA-activated PBMCs incubated with apo- or holo-lipocalin allergens (FACS); assay type: cell-based, human; settings: PBMCs pre-activated 24 h with PMA 0.75 ng/ml; allergen 100 μg/ml; holo = with catechol and iron; gated for CD3, 10000 CD3 cells recorded
Description: Cells were then stained for CD3-APC, CD8-PE, CD4-PE-CY7, 7AAD and Annexin V-FITC, gated for CD3 and analyzed by a FACS Canto II. Data acquisition was stopped when 10000 CD3 cells were recorded.
Apo-allergens were incubated with equimolar concentration of iron (ammonium iron (III) citrate, Sigma) and three-fold molar concentration of catechol, since 3 catechols are necessary for hexadental binding of iron in the LCN2-pocket against deionized water. Recombinant Bet v1a (Biomay, Vienna, Austria) was used as purchased
Blood was mixed with equal volumes of PBS containing 2% FCS before applying onto 10 ml Ficoll-Paque PLUS (GE Healthcare, Uppsala, Sweden), centrifugation at 400 g for 30 min without brake and washing the cells twice with 0,89% sodium chloride solution. Cells were then diluted to a concentration of 1Mio cells/ml in RPMI medium containing 10% FCS. Throughout the study FCS from the same lot was always used.
To PBMCs (0.5 Mio/test) a final concentration of 0.75 ng/ml PMA, 100 μg/ml apo-allergen (BLG, Alt a 1 and Bet v 1) with or without 10 μM catechol (Sigma) and 10 μM iron was added. For control purposes also tested without allergen or PMA. PMA each substance was determined in pre-experiments and considered concentration was optimal when cells were slightly downregulating surface CD4+ expression (7). […]

[3] = test system: PMA-activated PBMCs; assay: Cytokine content (IL13, IFN-γ) of supernatants of PMA-activated PBMCs stimulated with apo-/holo-allergens (ELISA); assay type: cell-based, human; settings: PMA-activated PBMCs incubated for 18-24h; allergen 100 μg/ml with or without 10 μM catechol and 10 μM iron
Description: To PBMCs (0.5 Mio/test) a final concentration of 0.75 ng/ml PMA, 100 μg/ml apo-allergen (BLG, Alt a 1 and Bet v 1) with or without 10 μM catechol (Sigma) and 10 μM iron was added. For control purposes also tested without allergen or PMA. PMA each substance was determined in pre-experiments and considered concentration was optimal when cells were slightly downregulating surface CD4+ expression (7). After 18-24h supernatants were collected and stored at −80° ° C. until further analysis.
LCN2 and the cytokine levels of IL13 and IFNγ were detected with commercially available kits according to the manufacturers' protocol. Sera were diluted 1:100 before determining LCN2-levels, whereas supernatants of 18-24h stimulation were used undiluted. Sensitivity of LCN2 assay is about 75 pg/ml and kits were purchased from R&D Systems (Minneapolis, MN, USA), whereas ELISAs for human IL13 and IFNγ were from ebioscience (Santa Clara, CA, USA), both assays having a reported sensitivity of 4 pg/ml.

Molecule | Autofluorescence of the cavity (iron-binding) [1] | CD4 expression and survival [2] | Th2-cytokines released upon stimulation (IL13 and IFN-γ analyzed) [3]
BLG: commercially available bovine beta-lactoglobulin, lipocalin allergen | quenched | – | –
apoBetv1: recombinant Bet v 1a birch allergen, used as purchased, without siderophore-iron (protein, UniProt P15494 2-160, looked up) Major pollen allergen Bet v …: GVFNYETETTSVIPAARLFKAFILDGDNLFPKVAPQAISSVENIEGNGGPGTIKKISFPEGFPFKYVKDRVDEVDHTNFKYNYSVIEGGPIGDTLEKISNEIKIVATPDGGSILKISNKYHTKGDHEVKAEQVKASKEMGETLLRAVESYLLAHSDAYN | – | increase | released
holoBetv1: recombinant Bet v 1a incubated with equimolar iron and three-fold molar catechol (protein, UniProt P15494 2-160, looked up, iron and catechol complex, recombinant Bet v 1a incubated with equimolar iron and three-fold molar catechol) Major pollen allergen Bet v …: GVFNYETETTSVIPAARLFKAFILDGDNLFPKVAPQAISSVENIEGNGGPGTIKKISFPEGFPFKYVKDRVDEVDHTNFKYNYSVIEGGPIGDTLEKISNEIKIVATPDGGSILKISNKYHTKGDHEVKAEQVKASKEMGETLLRAVESYLLAHSDAYN | – | sharp contrast | not
apo-Alt a 1: recombinant Alternaria alternata allergen Alt a 1, dialyzed against DFO, iron-free (protein, UniProt P79085 19-157, looked up) Major allergen Alt a 1: APLESRQDTASCPVTTEGDYVWKISEFYGRKPEGTYYNSLGFNIKATNGGTLDFTCSAQADKLEDHKWYSCGENSFMDFSFDSDRSGLLLKQKVSDDITYVATATLPNYCRAGGNGPKDFVCQGVADAYITLVTLPKSS | – | – | released
holo-Alt a 1: recombinant Alt a 1 incubated with equimolar iron and three-fold molar catechol (protein, UniProt P79085 19-157, looked up, iron and catechol bound, recombinant Alt a 1 incubated with equimolar iron and three-fold molar catechol) Major allergen Alt a 1: APLESRQDTASCPVTTEGDYVWKISEFYGRKPEGTYYNSLGFNIKATNGGTLDFTCSAQADKLEDHKWYSCGENSFMDFSFDSDRSGLLLKQKVSDDITYVATATLPNYCRAGGNGPKDFVCQGVADAYITLVTLPKSS | – | – | not

Reference: patent publication US12085574B2, “Method and means for diagnosing and treating allergy” (BIOMEDICAL INTERNATIONAL R+D GMBH, priority 2014, dated 2024)
